Assay results published in patent US20090099029A1, “Methods and substrates for conducting assays” (Invitrogen Corporation, priority 2005, published 2009).

What follows are molecules tested on kinases of Table 6 on Myelin Basic Protein (MBP) (assay: Kinase assay using MBP substrate, ProQ Diamond stain (Table 6)). Settings: kinase printed on MBP-coated slide; 20 uM ATP, 30° C.; ProQ Diamond Microarray Stain; graded Strong/Weak/Negative.
Assay type: biochemical
Method in brief: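 Reactions ran at 30° C. with 20 uM ATP, 4 mM MgCl2 and 5% DMSO in HEPES pH 7.5, inhibitor added or omitted. Kinases had been arrayed onto slide-bound dephosphorylated bovine MBP; phospho-signal read after ProQ Diamond staining.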

Molecule | MBP Kinase Activity
RPS6KA1(RSK1) (protein, left off: small tags and cut ends) MPLAQLKEPWPLMELVPLDPENGQTSGEEAGLQPSKDEGVLKEISITHHVKAGSEKADPSHFELLKVLGQGSFGKVFLVRKVTRPDSGHLYAMKVLKKATLKVRDRVRTKMERDILADVNHPFVVKLHYAFQTEGKLYLILDFLRGGDLFTRLSKEVMFTEEDVKFYLAELALGLDHLHSLGIIYRDLKPENILLDEEGHIKLTDFGLSKEAIDHEKKAYSFCGTVEYMAPEVVNRQGHSHSADWWSYGVLMFEMLTGSLPFQGKDRKETMTLILKAKLGMPQFLSTEAQSLLRALFKRNPANRLGSGPDGAEEIKRHVFYSTIDWNKLYRREIKPPFKPAVAQPDDTFYFDTEFTSRTPKDSPGIPPSAGAHQLFRGFSFVATGLMEDDGKPRAPQAPLHSVVQQLHGKNLVFSDGYVVKETIGVGSYSECKRCVHKATNMEYAVKVIDKSKRDPSEEIEILLRYGQHPNIITLKDVYDDGKHVYLVTELMRGGELLDKILRQKFFSEREASFVLHTIGKTVEYLHSQGVVHRDLKPSNILYVDESGNPECLRICDFGFAKQLRAENGLLMTPCYTANFVAPEVLKRQGYDEGCDIWSLGILLYTMLAGYTPFANGPSDTPEEILTRIGSGKFTLSGGNWNTVSETAKDLVSKMLHVDPHQRLTAKQVLQHPWVTQKDKLPQSQLSHQDLQLVKGAMAATYSALNSSKPTPQLKPIESSILAQRRVRKLPSTTL | Strong
ROCK1 (protein, left off: a dimerising Fc or GST) MSTGDSFETRFEKMDNLLRDPKSEVNSDCLLDGLDALVYDLDFPALRKNKNIDNFLSRYKDTINKIRDLRMKAEDYEVVKVIGRGAFGEVQLVRHKSTRKVYAMKLLSKFEMIKRSDSAFFWEERDIMAFANSPWVVQLFYAFQDDRYLYMVMEYMPGGDLVNLMSNYDVPEKWARFYTAEVVLALDAIHSMGFIHRDVKPDNMLLDKSGHLKLADFGTCMKMNKEGMVRCDTAVGTPDYISPEVLKSQGGDGYYGRECDWWSVGVFLYEMLVGDTPFYADSLVGTYSKIMNHKNSLTFPDDNDISKEAKNLICAFLTDREVRLGRNGVEEIKRHLFFKNDQWAWETLRDTVAPVVPDLSSDIDTSNFDDLEEDKGEEETFPIPKAFVGNQLPFVGFTYYSNRRYLSSANPNDNRTSSNADKSLQESLQKTIYKLEEQLHNEMQLKDEMEQKCRTSNIKLDKIMKELDEEGNQRRNLESTVSQIEKEKMLLQHRINEYQRKAEQENEKRRNVENEVSTLKDQLEDLKKVSQNSQL | Strong
ROCK2 (protein, left off: a dimerising Fc or GST) MSRPPPTGKMPGAPETAPGDGAGASRQRKLEALIRDPRSPINVESLLDGLNSLVLDLDFPALRKNKNIDNFLNRYEKIVKKIRGLQMKAEDYDVVKVIGRGAFGEVQLVRHKASQKVYAMKLLSKFEMIKRSDSAFFWEERDIMAFANSPWVVQLFYAFQDDRYLYMVMEYMPGGDLVNLMSNYDVPEKWAKFYTAEVVLALDAIHSMGLIHRDVKPDNMLLDKHGHLKLADFGTCMKMDETGMVHCDTAVGTPDYISPEVLKSQGGDGFYGRECDWWSVGVFLYEMLVGDTPFYADSLVGTYSKIMDHKNSLCFPEDAEISKHAKNLICAFLTDREVRLGRNGVEEIRQHPFFKNDQWHWDNIRETAAPVVPELSSDIDSSNFDDIEDDKGDVETFPIPKAFVGNQLPFIGFTYYRENLLLSDSPSCRETDSIQSRKNEESQEIQKKLYTLEEHLSNEMQAKEELEQKCKSVNTRLEKTAKELEEEITLRKSVESALRQLEREKALLQHKNAEYQRKADHEADKKRNLENDVNSLKDQLEDLKKRNQNSQI | Strong
PRKCN(PKD3) (protein, left off: a dimerising Fc or GST) MSANNSPPSAQKSVLPTAIPAVLPAASPCSSPKTGLSARLSNGSFSAPSLTNSRGSVHTVSFLLQIGLTRESVTIEAQELSLSAVKDLVCSIVYQKFPECGFFGMYDKILLFRHDMNSENILQLITSADEIHEGDLVEVVLSALATVEDFQIRPHTLYVHSYKAPTFCDYCGEMLWGLVRQGLKCEGCGLNYHKRCAFKIPNNCSGVRKRRLSNVSLPGPGLSVPRPLQPEYVALPSEESHVHQEPSKRIPSWSGRPIWMEKMVMCRVKVPHTFAVHSYTRPTICQYCKRLLKGLFRQGMQCKDCKFNCHKRCASKVPRDCLGEVTFNGEPSSLGTDTDIPMDIDNNDINSDSSRGLDDTEEPSPPEDKMFFLDPSDLDVERDEEAVKTISPSTSNNIPLMRVVQSIKHTKRKSSTMVKEGWMVHYTSRDNLRKRHYWRLDSKCLTLFQNESGSKYYKEIPLSEILRISSPRDFTNISQGSNPHCFEIITDTMVYFVGENNGDSSHNPVLAATGVGLDVAQSWEKAIRQALMPVTPQASVCTSPGQGKDHKDLSTSISVSNCQIQENVDISTVYQIFADEVLGSGQFGIVYGGKHRKTGRDVAIKVIDKMRFPTKQESQLRNEVAILQNLHHPGIVNLECMFETPERVFVVMEKLHGDMLEMILSSEKSRLPERITKFMVTQILVALRNLHFKNIVHCDLKPENVLLASAEPFPQVKLCDFGFARIIGEKSFRRSVVGTPAYLAPEVLRSKGYNRSLDMWSVGVIIYVSLSGTFPFNEDEDINDQIQNAAFMYPPNPWREISGEAIDLINNLLQVKMRKRYSVDKSLSHPWLQDYQTWLDLREFETRIGERYITHESDDARWEIHAYTHNLVYPKHFIMAPNPDDMEEDP | Weak
RPS6KA2(RSK3) (protein, left off: small tags and cut ends) MDLSMKKFAVRRFFSVYLRRKSRSKSSSLSRLEEEGVVKEIDISHHVKEGFEKADPSQFELLKVLGQGSYGKVFLVRKVKGSDAGQLYAMKVLKKATLKVRDRVRSKMERDILAEVNHPFIVKLHYAFQTEGKLYLILDFLRGGDLFTRLSKEVMFTEEDVKFYLAELALALDHLHSLGIIYRDLKPENILLDEEGHIKITDFGLSKEAIDHDKRAYSFCGTIEYMAPEVVNRRGHTQSADWWSFGVLMFEMLTGSLPFQGKDRKETMALILKAKLGMPQFLSGEAQSLLRALFKRNPCNRLGAGIDGVEEIKRHPFFVTIDWNTLYRKEIKPPFKPAVGRPEDTFHFDPEFTARTPTDSPGVPPSANAHHLFRGFSFVASSLIQEPSQQDLHKVPVHPIVQQLHGNNIHFTDGYEIKEDIGVGSYSVCKRCVHKATDTEYAVKIIDKSKRDPSEEIEILLRYGQHPNIITLKDVYDDGKFVYLVMELMRGGELLDRILRQRYFSEREASDVLCTITKTMDYLHSQGVVHRDLKPSNILYRDESGSPESIRVCDFGFAKQLRAGNGLLMTPCYTANFVAPEVLKRQGYDAACDIWSLGILLYTMLAGFTPFANGPDDTPEEILARIGSGKYALSGGNWDSISDAAKDVVSKMLHVDPHQRLTAMQVLKHPWVVNREYLSPNQLSRQDVHLVKGAMAATYFALNRTPQAPRLEPVLSSNLAQRRGMKRLTSTRL | Negative
PRKX (protein, left off: a dimerising Fc or GST) MEAPGLAQAAAAESDSRKVAEETPDGAPALCPSPEALSPEPPVYSLQDFDTLATVGTGTFGRVHLVKEKTAKHFFALKVMSIPDVIRLKQEQHVHNEKSVLKEVSHPFLIRLFWTWHDERFLYMLMEYVPGGELFSYLRNRGRFSSTTGLFYSAEIICAIEYLHSKEIVYRDLKPENILLDRDGHIKLTDFGFAKKLVDRTWTLCGTPEYLAPEVIQSKGHGRAVDWWALGILIFEMLSGFPPFFDDNPFGIYQKILAGKIDFPRHLDFHVKDLIKKLLVVDRTRRLGNMKNGANDVKHHRWFRSVDWEAVPQRKLKPPIVPKIAGDGDTSNFETYPENDWDTAAPVPQKDLEIFKNF | Negative
PRKD2(PKD2) (protein, left off: a dimerising Fc or GST) MATAPSYPAGLPGSPGPGSPPPPGGLELQSPPPLLPQIPAPGSGVSFHIQIGLTREFVLLPAASELAHVKQLACSIVDQKFPECGFYGLYDKILLFKHDPTSANLLQLVRSSGDIQEGDLVEVVLSASATFEDFQIRPHALTVHSYRAPAFCDHCGEMLFGLVRQGLKCDGCGLNYHKRCAFSIPNNCSGARKRRLSSTSLASGHSVRLGTSESLPCTAEELSRSTTELLPRRPPSSSSSSSASSYTGRPIELDKMLLSKVKVPHTFLIHSYTRPTVCQACKKLLKGLFRQGLQCKDCKFNCHKRCATRVPNDCLGEALINGDVPMEEATDFSEADKSALMDESEDSGVIPGSHSENALHASEEEEGEGGKAQSSLGYIPLMRVVQSVRHTTRKSSTTLREGWVVHYSNKDTLRKRHYWRLDCKCITLFQNNTTNRYYKEIPLSEILTVESAQNFSLVPPGTNPHCFEIVTANATYFVGEMPGGTPGGPSGQGAEAARGWETAIRQALMPVILQDAPSAPGHAPHRQASLSISVSNSQIQENVDIATVYQIFPDEVLGSGQFGVVYGGKHRKTGRDVAVKVIDKLRFPTKQESQLRNEVAILQSLRHPGIVNLECMFETPEKVFVVMEKLHGDMLEMILSSEKGRLPERLTKFLITQILVALRHLHFKNIVHCDLKPENVLLASADPFPQVKLCDFGFARIIGEKSFRRSVVGTPAYLAPEVLLNQGYNRSLDMWSVGVIMYVSLSGTFPFNEDEDINDQIQNAAFMYPASPWSHISAGAIDLINNLLQVKMRKRYSVDKSLSHPWLQEYQTWLDLRELEGKMGERYITHESDDARWEQFAAEHPLPGSGLPTDRDLGGACPPQDHDMQGLAERISVL | Strong
EPHB3 (protein, left off: a dimerising Fc or GST) CLRKQRHGSDSEYTEKLQQYIAPGMKVYIDPFTYEDPNEAVREFAKEIDVSCVKIEEVIGAGEFGEVCRGRLKQPGRREVFVAIKTLKVGYTERQRRDFLSEASIMGQFDHPNIIRLEGVVTKSRPVMILTEFMENCALDSFLRLNDGQFTVIQLVGMLRGIAAGMKYLSEMNYVHRDLAARNILVNSNLVCKVSDFGLSRFLEDDPSDPTYTSSLGGKIPIRWTAPEAIAYRKFTSASDVWSYGIVMWEVMSYGERPYWDMSNQDVINAVEQDYRLPPPMDCPTALHQLMLDCWVRDRNLRPKFSQIVNTLDKLIRNAASLKVIASAQSGMSQPLLDRTVPDYTTFTTVGDWLDAIKMGRYKESFVSAGFASFDLVAQMTAEDLLRIGVTLAGHQKKILSSIQDMRLQMNQTLPVQV | Strong
